Source: US20220363763A1 (ABL BIO, published 2022)
Positions count from the first letter of the chain named. Read-outs that look alike come from different tables or passages of the source. Blank lines part the entries; values can stand above or below the binder they belong to.

Tests used:
[1] = target: T1, human PD-L1 (construct not stated) (human, UniProt Q9NZQ7 19-239, limits assumed); experiment: SPR Biacore, affinity ranking
T1 construct: also called B7-H1 (PD-L1); PD-L1 protein

[2] = target: T1, human PD-L1 (construct not stated); experiment: BLI Octet Red 96, affinity ranking
Description: To explore the binding kinetics of the humanized antibody, this example performed the affinity ranking by using Octet Red 96.

[3] = target: T2, human PD-L1 expressed on mammalian cells (human, UniProt Q9NZQ7 19-290); experiment: FACS receptor blocking on PDL1-CHOK1 cells, competitor Bio-PD1 (30 µg/ml)
T2 construct: whole, on cells; also called PDL1-CHOK1 cells; PDL1-Raji cells
T2 sequence (Q9NZQ7 19-290): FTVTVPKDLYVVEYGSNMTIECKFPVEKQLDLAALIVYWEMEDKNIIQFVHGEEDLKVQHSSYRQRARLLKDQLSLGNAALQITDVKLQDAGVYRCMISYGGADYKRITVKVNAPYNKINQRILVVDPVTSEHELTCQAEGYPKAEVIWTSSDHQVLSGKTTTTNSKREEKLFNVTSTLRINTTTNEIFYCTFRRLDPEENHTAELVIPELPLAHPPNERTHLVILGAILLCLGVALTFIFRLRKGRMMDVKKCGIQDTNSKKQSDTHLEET
Experimental: To evaluate the blocking effect of humanized antibodies on human PD-L1 expressed on mammalian cells to bind to its receptor PD-1, the FACS-based receptor blocking assay was employed. Briefly, PDL1-CHOK1 cells were firstly incubated with 3-fold serious diluted HL1210-3 mouse mAb starting at 20 μg/ml at RT for 1 hour. After wash by FACS buffer (PBS with 2% FBS), the biotin-labeled huPD-1 were added to each well and incubated at RT for 1 hour. Then, the Streptavidin-PE was added to each well for 0.5 hour post twice wash with FACS buffer. The mean florescence intensity (MFI) of PE was evaluated by FACSAriaIII.

human PD-L1-Fc protein [4] = target: T3, human PD-L1-Fc protein (human, UniProt Q9NZQ7 19-239); experiment: ELISA on coated human PD-L1-Fc; EC50 table has no unit, x axis Ab(nM)
T3 construct: Coated on ELISA plates; also called huPD-L1; not shown: Fc part
T3 sequence (Q9NZQ7 19-239 limits assumed): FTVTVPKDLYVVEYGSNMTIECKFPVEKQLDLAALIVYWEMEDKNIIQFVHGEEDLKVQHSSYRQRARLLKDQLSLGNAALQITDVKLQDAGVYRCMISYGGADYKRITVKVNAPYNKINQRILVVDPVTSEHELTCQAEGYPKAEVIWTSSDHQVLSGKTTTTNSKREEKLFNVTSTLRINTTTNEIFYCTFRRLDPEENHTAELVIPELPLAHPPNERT
Experimental: (§1) To evaluate the antigen binding activity, the humanized antibodies were subjected to ELISA test. Briefly, microtiter plates were coated with human PD-L1-Fc protein at 0.1 μg/ml in PBS, 100 μl/well at 4° C. overnight, then blocked with 100 μl/well of 5% BSA. Five-fold dilutions of humanized antibodies starting from 10 μg/ml were added to each well and incubated for 1-2 hours at RT. The plates were washed with PBS/Tween and then incubate with […] antibody conjugated with Horse Radish Peroxidase (HRP) for 1 hour at RT. After washing, the plates were developed with TMB substrate and analyzed by spectrophotometer at OD 450-630 nm.

[5] = target: T2, human PD-L1 expressed on mammalian cells; experiment: flow cytometry (MFI) on PDL1-CHOK1 cells; EC50 table has no unit, x axis Antibodies(nM)
Experimental: (§2) To evaluate the antigen binding property, the humanized antibodies were analyzed for its binding to mammalian expressed PD-L1 by FACS. Briefly, PDL1-CHOK1 cells were firstly incubated with 5-fold serious diluted humanized antibodies starting at 2 μg/ml at RT for 1 hour. After wash by FACS buffer (PBS with 2% FBS), the alexa 488-anti-human IgG antibody was added to each well and incubated at RT for 1 hour. The MFI of Alexa 488 was evaluated by FACSAriaIII.

[6] = target: T4, human PD-L1-his taq protein (human, UniProt Q9NZQ7 19-239, limits assumed); experiment: SPR Biacore T200, antibody captured, PD-L1-his injected
T4 construct: also called recombinant PD-L1 protein; recombinant human PD-L1; not shown: his tag
T4 sequence (Q9NZQ7 19-239 limits assumed): as above
Experimental: The binding of the humanized antibodies to recombinant PD-L1 protein (human PD-L1-his taq) was tested by BIACORE™ using a capture method. The HL1210-3 mouse mAb were captured using anti-mouse Fc antibody coated on a CM5 chip. A series dilution of human PD-L1-his taq protein was injected over captured antibody for 3 mins at a flow rate of […]. The antigen was allowed to dissociate for 900 s. All the experiments were carried out on a Biacore T200.

[7] = target: T2, human PD-L1 expressed on mammalian cells; experiment: flow cytometry (MFI) on PDL1-CHOK1 cells; EC50 table has no unit, x axis Antibodies(nM); remark: listed apart in the source
Experimental: as §2

human PD-L1-Fc protein [8] = target: T3, human PD-L1-Fc protein; experiment: ELISA on coated human PD-L1-Fc; EC50 table has no unit, x axis Ab(nM); remark: listed apart in the source
Experimental: as §1

[9] = target: T5, human LAG3 (construct not stated) (human, UniProt P18627 23-450, limits assumed); experiment: BLI Octet Red 96, full kinetics, antigen 50-3.125 nM
T5 construct: also called human LAG3 protein; antigen
T5 sequence (looked up): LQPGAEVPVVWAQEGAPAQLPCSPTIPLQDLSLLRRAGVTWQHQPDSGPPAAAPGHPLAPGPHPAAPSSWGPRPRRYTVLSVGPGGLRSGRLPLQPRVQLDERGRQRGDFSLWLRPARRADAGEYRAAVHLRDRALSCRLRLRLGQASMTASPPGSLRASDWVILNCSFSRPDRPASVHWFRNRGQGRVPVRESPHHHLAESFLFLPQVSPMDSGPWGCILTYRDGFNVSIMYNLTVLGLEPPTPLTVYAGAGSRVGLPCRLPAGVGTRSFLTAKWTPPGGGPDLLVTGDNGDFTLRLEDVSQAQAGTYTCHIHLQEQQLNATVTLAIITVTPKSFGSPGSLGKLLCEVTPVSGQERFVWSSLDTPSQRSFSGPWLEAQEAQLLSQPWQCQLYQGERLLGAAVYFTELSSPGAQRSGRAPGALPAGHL
Experimental: The binding affinity was calculated by software in Octet® RED96 System.

[10] = target: T5, human LAG3 (construct not stated); experiment: BLI Octet Red 96, affinity ranking

T1 sequence (Q9NZQ7 19-239 limits assumed): as the sequence (Q9NZQ7 19-239 limits assumed) above

- Kd [1]: 2.49 nM
- koff [1]: 0.000296 s⁻¹
- kon [1]: 119000 M⁻¹ s⁻¹
B1: B3 (antibody, V domains shown)
VH: EVQLVESGGGLVQPGGSLRLSCAASGFTFSSYDMSWVRQAPGKSLEWVATISDAGGYIYYRDSVKGRFTISRDNAKNSLYLQMNSLRDEDTAVYICAREFGKRYALDYWGQGTTVTVSS
VL: DIQMTQSPSSLSASVGDRVTITCKAKQDVTPAVAWYQQKPGKAPKLLIYSTSSRYTGVPSRFSGSGSGTDFTFTISSLQPEDIATYYCMQHYTTPLTFGQGTKLEIK

- Kd [2]: 2.2 nM
- koff [2]: 0.00018 s⁻¹
- kon [2]: 81700 M⁻¹ s⁻¹
- TOP [3]: 80.9
- EC50 (human PD-L1-Fc protein [4]): 0.208 nM
- EC50 [5]: 1.23 nM
- Kd [6]: 0.193 nM
- koff [6]: 2.13e-05 s⁻¹
- kon [6]: 110000 M⁻¹ s⁻¹
B2: Hu1210-17 (antibody, V domains shown)
VH: B1 VH with A54G, R61S
VL: B1 VL with K26S, M89Q
notes: Hu1210 VH.4b x Vk.1; human gamma 1 / kappa constant domains

- TOP [3]: 92.9
- Kd [6]: 0.786 nM
- koff [6]: 0.000117 s⁻¹
- kon [6]: 149000 M⁻¹ s⁻¹
B3: Hu1210-31 (antibody, V domains shown)
VH: B1 VH with S44G, A54G, R61S, D88A
VL: DIQMTQSPSSLSASVGDRVTITCKASQDVTPAVAWYQQKPGKAPKLLIYSTSSRYTGVPSRFSGSGSGTDFTLTISSLQPEDFATYYCQQHYTTPLTFGQGTKLEIKR
notes: Hu1210 VH.5b x Vk.2; human gamma 1 / kappa constant domains

- TOP [3]: 104
B4: Hu1210-27 (antibody, V domains shown)
VH: B1 VH with S44G, A54G, R61S, D88A, T114L
VL: B3 VL
notes: Hu1210 VH.5a x Vk.2; human gamma 1 / kappa constant domains

- Kd [2]: 3.12 nM
- koff [2]: 0.000293 s⁻¹
- kon [2]: 93900 M⁻¹ s⁻¹
- EC50 (human PD-L1-Fc protein [4]): 0.192 nM
- EC50 [5]: 1.29 nM
B5: Hu1210-21 (antibody, V domains shown)
VH: B1 VH with S44G, A54G, R61S, I95Y
VL: B1 VL with K26S, A43S, M89Q
notes: Hu1210 VH.4a x Vk.1a; human gamma 1 / kappa constant domains

- EC50 [7]: 2.31 nM
- Kd [2]: 4.25 nM
- koff [2]: 0.000302 s⁻¹
- kon [2]: 71000 M⁻¹ s⁻¹
- EC50 (human PD-L1-Fc protein [8]): 0.167 nM
B6: Hu1210-1 (antibody, V domains shown)
VH: B1 VH with Q13K, S44G, A49S, A54G, R61S, D88A, I95Y
VL: B1 VL with K26S, M89Q
notes: Hu1210 VH.1 x Vk.1

- Kd [2]: 2.5 nM
- koff [2]: 0.000225 s⁻¹
- kon [2]: 90300 M⁻¹ s⁻¹
- TOP [3]: 87.5
- EC50 (human PD-L1-Fc protein [4]): 0.137 nM
- EC50 [5]: 1.01 nM
B7: Hu1210-19 (antibody, V domains shown)
VH: B1 VH with V5L, A54G, R61S, A75S, S78T, D88A
VL: B1 VL with K26S, A43S, M89Q
notes: Hu1210 VH.3a x Vk.1a; human gamma 1 / kappa constant domains

- Kd [1]: 1.63 nM
- koff [1]: 0.000334 s⁻¹
- kon [1]: 206000 M⁻¹ s⁻¹
B8: C6 (antibody, V domains shown)
VH: B1 VH with F100L, G101Y, K102F
VL: B1 VL with K26S, M89Q

- Kd [1]: 4.5 nM
- koff [1]: 0.000506 s⁻¹
- kon [1]: 113000 M⁻¹ s⁻¹
B9: C4 (antibody, V domains shown)
VH: B1 VH with Y108S
VL: B1 VL with K26S, T30W, M89Q, Y92S

- Kd [1]: 1.37 nM
- koff [1]: 0.000299 s⁻¹
- kon [1]: 218000 M⁻¹ s⁻¹
B10: C3 (antibody, V domains shown)
VH: B1 VH with F100L, G101H, K102F
VL: B1 VL with K26S, M89Q

- Kd [2]: 4.51 nM
- koff [2]: 0.0004 s⁻¹
- kon [2]: 88700 M⁻¹ s⁻¹
- EC50 (human PD-L1-Fc protein [4]): 0.185 nM
- EC50 [5]: 1.73 nM
B11: Hu1210-20 (antibody, V domains shown)
VH: B1 VH with S44G, A49S, A54G, R61S, I95Y
VL: B1 VL with K26S, A43S, M89Q
notes: Hu1210 VH.4 x Vk.1a; human gamma 1 / kappa constant domains

- EC50 [7]: 1.44 nM
- Kd [2]: 3.23 nM
- koff [2]: 0.000251 s⁻¹
- kon [2]: 77800 M⁻¹ s⁻¹
- EC50 (human PD-L1-Fc protein [8]): 0.168 nM
B12: Hu1210-2 (antibody, V domains shown)
VH: B1 VH with Q13K, S44G, A54G, R61S, D88A, I95Y
VL: B1 VL with K26S, M89Q
notes: Hu1210 VH.1a x Vk.1; human gamma 1 / kappa constant domains

- Kd [2]: 4.5 nM
- koff [2]: 0.000357 s⁻¹
- kon [2]: 79200 M⁻¹ s⁻¹
- EC50 (human PD-L1-Fc protein [4]): 0.195 nM
- EC50 [5]: 1.8 nM
B13: Hu1210-18 (antibody, V domains shown)
VH: B1 VH with V5L, S44G, A49S, A54G, R61S, A75S, S78T, D88A, I95Y
VL: B1 VL with K26S, A43S, M89Q
notes: Hu1210 VH.3 x Vk.1a; human gamma 1 / kappa constant domains

- TOP [3]: 91.8
- Kd [6]: 0.538 nM
- koff [6]: 7.85e-05 s⁻¹
- kon [6]: 146000 M⁻¹ s⁻¹
B14: Hu1210-36 (antibody, V domains shown)
VH: B1 VH with A40T, G42E, A54G, R61S, S78N, D88A, T114L
VL: B3 VL
notes: Hu1210 VH.5d (printed 'VH.Sd') x Vk.2; human gamma 1 / kappa constant domains

- Kd [9]: 24.8 nM
- koff [9]: 0.00259 s⁻¹
- kon [9]: 105000 M⁻¹ s⁻¹
- Kd [10]: 15.3 nM
- koff [10]: 0.00184 s⁻¹
- kon [10]: 120000 M⁻¹ s⁻¹
B15: 147H-6 (antibody, V domains shown)
VH: QVQLVQSGAEVKKPGASVKVSCKASGYTFTNYWLGWIKQAPGQGLEWIGDIYPGGDYINYNEKFKGKATLTADTSISTAYMELSRLRSDDTAVYYCARPNLPGDYWGQGTTVTVSS
VL: DIVMTQSPLSLPVTPGEPASISCRSSKSLLHSNGITYLYWYLQKPGQSPQLLIYQVSNLASGVPDRFSGSGSGTDFTLKISRVEAEDVGVYYCAQNLELPWTFGGGTKVEIK
notes: Common light chain; human gamma 1 / kappa constant domains

- Kd [9]: 27.1 nM
- koff [9]: 0.00217 s⁻¹
- kon [9]: 80100 M⁻¹ s⁻¹
B16: 147H chimeric antibody (antibody, V domains shown)
VH: QVQLQQSGSELVRPGTSVKISCKASGYTFTNYWLGWIKQRPGHGLEWIGDIYPGGDYINYNEKFKGKATLSADTSSSTAYMQLSSLTSEDSAVYFCARPNLPGDYWGQGTSVTVSS
VL: B15 VL with S7A, P8A, L9F, L11N, P15L, E17T, P18S, D65G, K79R, V109L

- Kd [9]: 26.5 nM
- koff [9]: 0.00312 s⁻¹
- kon [9]: 118000 M⁻¹ s⁻¹
- Kd [10]: 15.7 nM
- koff [10]: 0.00239 s⁻¹
- kon [10]: 152000 M⁻¹ s⁻¹
B17: 147H-7 (antibody, V domains shown)
VH: B15 VH with Y95F
VL: B15 VL
notes: as for B15

- Kd [9]: 20.7 nM
- koff [9]: 0.00204 s⁻¹
- kon [9]: 98700 M⁻¹ s⁻¹
- Kd [10]: 23.2 nM
- koff [10]: 0.0025 s⁻¹
- kon [10]: 108000 M⁻¹ s⁻¹
B18: 147H-14 (antibody, V domains shown)
VH: B15 VH with Q1E, Y95F
VL: B15 VL
notes: as for B15
